For 15 molecules, Kd, koff and kon results are on record in US20190241669A1 (published 2019).

For one assay, the target named is Human BCMA (human) (UniProt Q02223). Put plainly: SPR, IgG on chip, huBCMA analyte. In general terms: SPR reads the build-up and loss of mass on a sensor chip optically.
For a further assay, the target named is T1, cynomolgus monkey BCMA (cynomolgus monkey, UniProt A0A2K5UD97 1-53).
T1 construct: Soluble analyte in SPR; construct not described; also called cyBCMA; Cyno BCMA
Kind of assay: SPR, IgG on chip, cyBCMA analyte.

T1 sequence (A0A2K5UD97 entry or part of it): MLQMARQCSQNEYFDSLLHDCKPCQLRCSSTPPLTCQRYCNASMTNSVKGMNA

B1: C01_Rd4_0.6nM_C16 (antibody, V domains shown)
VH: EVQLLESGGGLVQPGGSLRLSCAASGFTFSSYPMSWVRQAPGKGLEWVSAIGGSGGSLPYADSVKGRFTISRDNSKNTLYLQMNSLRAEDTAVYYCARYWPMDSWGQGTLVTVSS
VL: EIVLTQSPGTLSLSPGERATLSCRASQSVSSTYLAWYQQKPGQAPRLLIYDASSRAPGIPDRFSGSGSGTDFTLTISRLEPEDFAVYYCQQYSSWPLTFGQGTKVEIK
notes: IgG
A word on the Kd: it is the constant that tells how readily two partners part at equilibrium. One may read the koff as the first-order rate constant of dissociation. One may read the kon as a measure of how fast the partners come together. In the assay with Human BCMA (human), B1 showed a Kd of 0.407 nM, a koff of 0.0063 s⁻¹ and a kon of 1.55e+07 M⁻¹ s⁻¹. For the same molecule, in the assay with cynomolgus monkey BCMA, the Kd is 0.939 nM, the koff came to 0.00464 s⁻¹ and the kon was determined as 4.95e+06 M⁻¹ s⁻¹.

B2: COMBO_Rd4_0.6nM_C02 (antibody, V domains shown)
VH: EVQLLESGGGLVQPGGSLRLSCAASGFTFSSYPMSWVRQAPGKGLEWVSAIGGSGGSLPYADSVKGRFTISRDNSKNTLYLQMNSLRAEDTAVYYCARYWPMDSWGQGTLVTVSS
VL: EIVLTQSPGTLSLSPGERATLSCRASIAVSSTYLAWYQQKPGQAPRLLMYDASIRATGIPDRFSGSGSGTDFTLTISRLEPEDFAVYYCQQYMVWPLTFGQGTKVEIK
notes: IgG
In the assay with Human BCMA (human), B2 had a Kd of 0.022 nM, a koff of 0.000185 s⁻¹ and an on-rate constant (kon) of 8.57e+06 M⁻¹ s⁻¹. In addition, in the assay with cynomolgus monkey BCMA, the equilibrium dissociation constant (Kd) worked out at 0.164 nM, the off-rate constant (koff) came out at 0.000494 s⁻¹ and the kon came to 3.01e+06 M⁻¹ s⁻¹.

B3: COMBO_Rd4_0.6nM_C14 (antibody, V domains shown)
VH: EVQLLESGGGLVQPGGSLRLSCAASGFTFSSYPMSWVRQAPGKGLEWVSAIGGSGGSLPYADSVKGRFTISRDNSKNTLYLQMNSLRAEDTAVYYCARYWPMDIWGQGTLVTVSS
VL: EIVLTQSPGTLSLSPGERATLSCRASQSVSALYLAWYQQKPGQAPRLLMYDASIRATGIPDRFSGSGSGTDFTLTISRLEPEDFAVYYCQQYYGWPLTFGQGTKVEIK
notes: IgG
For the molecule B3, in the assay with Human BCMA (human), the dissociation constant Kd is 0.038 nM, the koff worked out at 0.000328 s⁻¹ and the kon stood at 8.66e+06 M⁻¹ s⁻¹. In the assay with cynomolgus monkey BCMA, the Kd is 0.185 nM, the dissociation rate constant (koff) stood at 0.000645 s⁻¹ and the kon is 3.48e+06 M⁻¹ s⁻¹.

B4: C01_Rd4_6nM_C24 (antibody, V domains shown)
VH: EVQLLESGGGLVQPGGSLRLSCAASGFTFSSYPMSWVRQAPGKGLEWVSAIGGSGGSLPYADSVKGRFTISRDNSKNTLYLQMNSLRAEDTAVYYCARYWPMDSWGQGTLVTVSS
VL: EIVLTQSPGTLSLSPGERATLSCRASQSVSPEYLAWYQQKPGQAPRLLIYDASSRAPGIPDRFSGSGSGTDFTLTISRLEPEDFAVYYCQQYSVWPLTFGQGTKVEIK
notes: IgG
In the assay with Human BCMA (human), B4 registered a dissociation constant Kd of 0.467 nM, a koff of 0.00348 s⁻¹ and a kon of 7.47e+06 M⁻¹ s⁻¹. Also, in the assay with cynomolgus monkey BCMA, the affinity, expressed as Kd, was 0.281 nM; the koff was found to be 0.000891 s⁻¹; the kon was determined as 3.17e+06 M⁻¹ s⁻¹.

B5: C01_Rd4_6nM_C04 (antibody, V domains shown)
VH: EVQLLESGGGLVQPGGSLRLSCAASGFTFSSYPMSWVRQAPGKGLEWVSAIGGSGGSLPYADSVKGRFTISRDNSKNTLYLQMNSLRAEDTAVYYCARYWPMDSWGQGTLVTVSS
VL: EIVLTQSPGTLSLSPGERATLSCCSSQSVSSTYLAWYQQKPGQAPRLLIYDASSRAPGIPDRFSGSGSGTDFTLTISRLEPEDFAVYYCQQYSAFPLTFGQGTKVEIK
notes: IgG
Consider B5, for which, in the assay with Human BCMA (human), the dissociation constant (Kd) is 2.13 nM, the dissociation rate constant (koff) stood at 0.0497 s⁻¹ and the kon was 2.33e+07 M⁻¹ s⁻¹. In the assay with cynomolgus monkey BCMA, this molecule had a dissociation constant (Kd) of 5.16 nM, an off-rate constant (koff) of 0.0327 s⁻¹ and an association rate constant (kon) of 6.34e+06 M⁻¹ s⁻¹.

B6: COMBO_Rd4_0.6nM_C09 (antibody, V domains shown)
VH: EVQLLESGGGLVQPGGSLRLSCAASGFTFSSYPMSWVRQAPGKGLEWVSAIGGSGGSLPYADSVKGRFTISRDNSKNTLYLQMNSLRAEDTAVYYCARYWPMDIWGQGTLVTVSS
VL: EIVLTQSPGTLSLSPGERATLSCRASQSVSSTYLAWYQQKPGQAPRLLMYDASIRATGIPDRFSGSGSGTDFTLTISRLEPEDFAVYYCQQYQEWPLTFGQGTKVEIK
notes: IgG
In the assay with Human BCMA (human), B6 registered a Kd of 0.031 nM, an off-rate (koff) of 0.000319 s⁻¹ and an on-rate constant (kon) of 1.04e+07 M⁻¹ s⁻¹. In the assay with cynomolgus monkey BCMA, this molecule returned a Kd of 0.092 nM, a koff of 0.000346 s⁻¹ and a kon of 3.77e+06 M⁻¹ s⁻¹.

B7: C01_Rd4_6nM_C20 (antibody, V domains shown)
VH: EVQLLESGGGLVQPGGSLRLSCAASGFTFSSYPMSWVRQAPGKGLEWVSAIGGSGGSLPYADSVKGRFTISRDNSKNTLYLQMNSLRAEDTAVYYCARYWPMDSWGQGTLVTVSS
VL: EIVLTQSPGTLSLSPGERATLSCRASQSVSPLYLAWYQQKPGQAPRLLIYDASSRAPGIPDRFSGSGSGTDFTLTISRLEPEDFAVYYCQQYSAFPLTFGQGTKVEIK
notes: IgG
With B7, in the assay with Human BCMA (human), the equilibrium dissociation constant (Kd) came to 0.459 nM, the koff is 0.00276 s⁻¹ and the kon worked out at 6.02e+06 M⁻¹ s⁻¹. In the assay with cynomolgus monkey BCMA, this molecule yielded a Kd of 1.74 nM, a koff of 0.00625 s⁻¹ and a kon of 3.6e+06 M⁻¹ s⁻¹.

B8: COMBO_Rd4_0.6nM_C04 (antibody, V domains shown)
VH: EVQLLESGGGLVQPGGSLRLSCAASGFTFSSYPMSWVRQAPGKGLEWVSAHIGSGGSTYYADSVKGRFTISRDNSKNTLYLQMNSLRAEDTAVYYCARYWPMDSWGQGTLVTVSS
VL: EIVLTQSPGTLSLSPGERATLSCRASQSVSSTYLAWYQQKPGQAPRLLMYDASIRATGIPDRFSGSGSGTDFTLTISRLEPEDFAVYYCQQYQSWPLTFGQGTKVEIK
notes: IgG
In the assay with Human BCMA (human), B8 displayed a Kd of 0.015 nM, a koff of 0.000158 s⁻¹ and a kon of 1.07e+07 M⁻¹ s⁻¹. In addition, in the assay with cynomolgus monkey BCMA, the Kd is 0.039 nM, the koff worked out at 0.000137 s⁻¹ and the association rate constant (kon) turned out to be 3.52e+06 M⁻¹ s⁻¹.

B9: C01_Rd4_6nM_C12 (antibody, V domains shown)
VH: EVQLLESGGGLVQPGGSLRLSCAASGFTFSSYPMSWVRQAPGKGLEWVSAIGGSGGWSYYADSVKGRFTISRDNSKNTLYLQMNSLRAEDTAVYYCARYWPMDSWGQGTLVTVSS
VL: EIVLTQSPGTLSLSPGERATLSCWLSQSVSSTYLAWYQQKPGQAPRLLIYDASSRAPGIPDRFSGSGSGTDFTLTISRLEPEDFAVYYCQQYSEWPLTFGQGTKVEIK
notes: IgG; also called PC1C12
Consider B9, for which, in the assay with Human BCMA (human), the dissociation constant Kd was determined as 0.535 nM, the off-rate constant (koff) was 0.00649 s⁻¹ and the association rate constant (kon) was 1.21e+07 M⁻¹ s⁻¹. In the assay with cynomolgus monkey BCMA, the Kd turned out to be 0.82 nM, the koff amounted to 0.0037 s⁻¹ and the association rate constant (kon) was 4.51e+06 M⁻¹ s⁻¹.

B10: C01_Rd4_6nM_C09 (antibody, V domains shown)
VH: EVQLLESGGGLVQPGGSLRLSCAASGFTFSSYPMSWVRQAPGKGLEWVSATVGSGGSIGYADSVKGRFTISRDNSKNTLYLQMNSLRAEDTAVYYCARYWPMDSWGQGTLVTVSS
VL: EIVLTQSPGTLSLSPGERATLSCACSQSVSSTYLAWYQQKPGQAPRLLIYDASSRAPGIPDRFSGSGSGTDFTLTISRLEPEDFAVYYCQQYSAWPLTFGQGTKVEIK
notes: IgG
Regarding B10, in the assay with Human BCMA (human), the equilibrium dissociation constant (Kd) is 0.811 nM, the off-rate constant (koff) amounted to 0.0128 s⁻¹ and the kon was 1.58e+07 M⁻¹ s⁻¹. Also, in the assay with cynomolgus monkey BCMA, binding was characterised by a dissociation constant (Kd) of 2.33 nM, the koff came out at 0.00868 s⁻¹ and the kon was found to be 3.73e+06 M⁻¹ s⁻¹.

B11: COMBO_Rd4_0.6nM_C05 (antibody, V domains shown)
VH: EVQLLESGGGLVQPGGSLRLSCAASGFTFSSYAMNWVRQAPGKGLEWVSAIGGSGGSTYYADSVKGRFTISRDNSKNTLYLQMNSLRAEDTAVYYCARYWPMSLWGQGTLVTVSS
VL: EIVLTQSPGTLSLSPGERATLSCRASQSVSSTYLAWYQQKPGQAPRLLMYDASIRATGIPDRFSGSGSGTDFTLTISRLEPEDFAVYYCQQYMSWPLTFGQGTKVEIK
notes: IgG
In the assay with Human BCMA (human), B11 gave an equilibrium dissociation constant (Kd) of 0.115 nM, a dissociation rate constant (koff) of 0.000497 s⁻¹ and a kon of 4.32e+06 M⁻¹ s⁻¹. Further, in the assay with cynomolgus monkey BCMA, the Kd was 0.886 nM, the koff came to 0.00172 s⁻¹ and the association rate constant (kon) was determined as 1.94e+06 M⁻¹ s⁻¹.

B12: COMBO_Rd4_0.6nM_C11 (antibody, V domains shown)
VH: EVQLLESGGGLVQPGGSLRLSCAASGFTFSSYPMSWVRQAPGKGLEWVSAALGSGGSTYYADSVKGRFTISRDNSKNTLYLQMNSLRAEDTAVYYCARYWPMSLWGQGTLVTVSS
VL: EIVLTQSPGTLSLSPGERATLSCRASQSVSVRYLAWYQQKPGQAPRLLMYDASIRATGIPDRFSGSGSGTDFTLTISRLEPEDFAVYYCQQYGSWPITFGQGTKVEIK
notes: IgG
Take B12: in the assay with Human BCMA (human), the Kd came out at 0.207 nM, the off-rate (koff) was determined as 0.00106 s⁻¹ and the kon stood at 5.11e+06 M⁻¹ s⁻¹. In the assay with cynomolgus monkey BCMA, this molecule gave a Kd of 1.92 nM, an off-rate constant (koff) of 0.00423 s⁻¹ and a kon of 2.2e+06 M⁻¹ s⁻¹.

B13: C01_Rd4_6nM_C26 (antibody, V domains shown)
VH: EVQLLESGGGLVQPGGSLRLSCAASGFTFSSYPMSWVRQAPGKGLEWVSAIGGSGGSLPYADSVKGRFTISRDNSKNTLYLQMNSLRAEDTAVYYCARYWPMDSWGQGTLVTVSS
VL: EIVLTQSPGTLSLSPGERATLSCRASQSVSALYLAWYQQKPGQAPRLLIYDASSRAPGIPDRFSGSGSGTDFTLTISRLEPEDFAVYYCQQYSAWPLTFGQGTKVEIK
notes: IgG
Regarding B13, in the assay with Human BCMA (human), the equilibrium dissociation constant (Kd) was found to be 0.09 nM, the off-rate (koff) came to 0.00136 s⁻¹ and the kon was 1.5e+07 M⁻¹ s⁻¹. In the assay with cynomolgus monkey BCMA, this molecule registered a dissociation constant Kd of 0.419 nM, a koff of 0.00199 s⁻¹ and a kon of 4.75e+06 M⁻¹ s⁻¹.

B14: C01_Rd4_0.6nM_C27 (antibody, V domains shown)
VH: EVQLLESGGGLVQPGGSLRLSCAASGFTFSSYPMSWVRQAPGKGLEWVSAIGGSGGSLPYADSVKGRFTISRDNSKNTLYLQMNSLRAEDTAVYYCARYWPMDSWGQGTLVTVSS
VL: EIVLTQSPGTLSLSPGERATLSCRASQSVSSTYLAWYQQKPGQAPRLLIYDASSRAPGIPDRFSGSGSGTDFTLTISRLEPEDFAVYYCQQYSRWPLTFGQGTKVEIK
notes: IgG
For the molecule B14, in the assay with Human BCMA (human), the dissociation constant (Kd) amounted to 0.303 nM, the koff worked out at 0.00374 s⁻¹ and the kon turned out to be 1.23e+07 M⁻¹ s⁻¹. In the assay with cynomolgus monkey BCMA, this molecule displayed a dissociation constant (Kd) of 0.852 nM, a koff of 0.00285 s⁻¹ and an on-rate constant (kon) of 3.34e+06 M⁻¹ s⁻¹.

B15: C01_Rd4_6nM_C10 (antibody, V domains shown)
VH: EVQLLESGGGLVQPGGSLRLSCAASGFTFSSYPMSWVRQAPGKGLEWVSAIGGSGGSLPYADSVKGRFTISRDNSKNTLYLQMNSLRAEDTAVYYCARYWPMDSWGQGTLVTVSS
VL: EIVLTQSPGTLSLSPGERATLSCRASQSVSSVYLAWYQQKPGQAPRLLIYDASSRAPGIPDRFSGSGSGTDFTLTISRLEPEDFAVYYCQQYSTWPLTFGQGTKVEIK
notes: IgG
In the assay with Human BCMA (human), B15 gave an equilibrium dissociation constant (Kd) of 0.162 nM, a koff of 0.00212 s⁻¹ and a kon of 1.31e+07 M⁻¹ s⁻¹. In the assay with cynomolgus monkey BCMA, this molecule had a Kd of 0.493 nM, a koff of 0.00219 s⁻¹ and a kon of 4.44e+06 M⁻¹ s⁻¹.
